Assay results from patent US20220098307A1 (WUHAN YZY BIOPHARMA, published 2022).
Substitutions are numbered along the chain they refer to.

T1: Human BCMA (human, UniProt Q02223 1-54)
T1 sequence: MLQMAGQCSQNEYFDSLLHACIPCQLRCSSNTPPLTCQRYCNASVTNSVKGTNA

T2: human CEA (human, UniProt P06731 35-685)
T2 sequence: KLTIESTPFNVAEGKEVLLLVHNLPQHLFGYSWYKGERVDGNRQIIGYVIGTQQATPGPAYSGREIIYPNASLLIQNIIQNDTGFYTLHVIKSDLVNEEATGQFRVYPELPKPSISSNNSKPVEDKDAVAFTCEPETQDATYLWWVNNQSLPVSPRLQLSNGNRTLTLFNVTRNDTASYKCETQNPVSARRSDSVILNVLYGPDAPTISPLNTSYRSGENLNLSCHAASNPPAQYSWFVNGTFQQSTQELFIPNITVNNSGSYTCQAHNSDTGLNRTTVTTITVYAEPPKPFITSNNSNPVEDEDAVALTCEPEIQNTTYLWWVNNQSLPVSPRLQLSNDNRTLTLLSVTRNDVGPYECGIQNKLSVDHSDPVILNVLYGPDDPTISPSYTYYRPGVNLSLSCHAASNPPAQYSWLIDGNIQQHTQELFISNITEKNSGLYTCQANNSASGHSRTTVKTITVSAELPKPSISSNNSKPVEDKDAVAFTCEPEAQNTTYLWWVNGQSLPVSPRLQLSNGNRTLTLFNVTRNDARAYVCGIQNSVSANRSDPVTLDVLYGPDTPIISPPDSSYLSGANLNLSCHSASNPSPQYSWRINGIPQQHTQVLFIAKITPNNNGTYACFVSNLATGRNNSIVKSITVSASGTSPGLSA

B1: CEA-M3-WT (bispecific antibody)
fusion heavy: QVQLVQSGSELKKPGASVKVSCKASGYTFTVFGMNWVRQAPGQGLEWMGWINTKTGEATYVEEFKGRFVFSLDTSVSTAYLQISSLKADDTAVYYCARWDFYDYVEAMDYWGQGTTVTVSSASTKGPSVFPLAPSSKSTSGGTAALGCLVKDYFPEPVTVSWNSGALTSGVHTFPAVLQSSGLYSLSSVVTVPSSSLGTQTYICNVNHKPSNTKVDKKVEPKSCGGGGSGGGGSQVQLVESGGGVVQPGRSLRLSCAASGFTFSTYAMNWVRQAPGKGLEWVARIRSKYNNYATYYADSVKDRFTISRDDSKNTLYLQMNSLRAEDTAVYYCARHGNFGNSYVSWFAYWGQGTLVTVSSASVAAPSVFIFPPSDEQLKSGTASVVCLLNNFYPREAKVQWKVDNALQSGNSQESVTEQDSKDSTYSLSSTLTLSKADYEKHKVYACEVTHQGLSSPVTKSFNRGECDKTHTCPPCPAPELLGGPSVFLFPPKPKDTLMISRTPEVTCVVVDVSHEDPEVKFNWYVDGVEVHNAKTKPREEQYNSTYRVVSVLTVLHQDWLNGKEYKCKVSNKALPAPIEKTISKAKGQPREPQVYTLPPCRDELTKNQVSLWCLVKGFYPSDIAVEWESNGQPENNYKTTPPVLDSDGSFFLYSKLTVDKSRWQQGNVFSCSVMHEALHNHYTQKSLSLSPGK
cross light: QTVVTQEPSLTVSPGGTVTLTCRSSTGAVTTSNYANWVQQKPGQAPRGLIGGTNKRAPGVPARFSGSLLGGKAALTLSGVQPEDEAEYYCALWYSNLWVFGGGTKVEIKSSASTKGPSVFPLAPSSKSTSGGTAALGCLVKDYFPEPVTVSWNSGALTSGVHTFPAVLQSSGLYSLSSVVTVPSSSLGTQTYICNVNHKPSNTKVDKKVEPKSC
heavy: QVQLVQSGSELKKPGASVKVSCKASGYTFTVFGMNWVRQAPGQGLEWMGWINTKTGEATYVEEFKGRFVFSLDTSVSTAYLQISSLKADDTAVYYCARWDFYDYVEAMDYWGQGTTVTVSSASTKGPSVFPLAPSSKSTSGGTAALGCLVKDYFPEPVTVSWNSGALTSGVHTFPAVLQSSGLYSLSSVVTVPSSSLGTQTYICNVNHKPSNTKVDKKVEPKSCDKTHTCPPCPAPELLGGPSVFLFPPKPKDTLMISRTPEVTCVVVDVSHEDPEVKFNWYVDGVEVHNAKTKPREEQYNSTYRVVSVLTVLHQDWLNGKEYKCKVSNKALPAPIEKTISKAKGQPREPQVCTLPPSRDELTKNQVSLSCAVKGFYPSDIAVEWESNGQPENNYKTTPPVLDSDGSFFLVSKLTVDKSRWQQGNVFSCSVMHEALHNRFTQKSLSLSPGK
light: DIQMTQSPSSLSASVGDRVTITCKASQNVGTNVAWYQQKPGKAPKLLIYSASYRYSGVPSRFSGSGSGTDFTFTISSLQPEDIATYYCHQYYTYPLFTFGQGTKVEIKRTVAAPSVFIFPPSDEQLKSGTASVVCLLNNFYPREAKVQWKVDNALQSGNSQESVTEQDSKDSTYSLSSTLTLSKADYEKHKVYACEVTHQGLSSPVTKSFNRGEC
notes: structure 3; CEA x CD3; CH2 WT; copies: 1 + 1 + 1 + 2
B2: CEA-M3-AAG (bispecific antibody)
fusion heavy: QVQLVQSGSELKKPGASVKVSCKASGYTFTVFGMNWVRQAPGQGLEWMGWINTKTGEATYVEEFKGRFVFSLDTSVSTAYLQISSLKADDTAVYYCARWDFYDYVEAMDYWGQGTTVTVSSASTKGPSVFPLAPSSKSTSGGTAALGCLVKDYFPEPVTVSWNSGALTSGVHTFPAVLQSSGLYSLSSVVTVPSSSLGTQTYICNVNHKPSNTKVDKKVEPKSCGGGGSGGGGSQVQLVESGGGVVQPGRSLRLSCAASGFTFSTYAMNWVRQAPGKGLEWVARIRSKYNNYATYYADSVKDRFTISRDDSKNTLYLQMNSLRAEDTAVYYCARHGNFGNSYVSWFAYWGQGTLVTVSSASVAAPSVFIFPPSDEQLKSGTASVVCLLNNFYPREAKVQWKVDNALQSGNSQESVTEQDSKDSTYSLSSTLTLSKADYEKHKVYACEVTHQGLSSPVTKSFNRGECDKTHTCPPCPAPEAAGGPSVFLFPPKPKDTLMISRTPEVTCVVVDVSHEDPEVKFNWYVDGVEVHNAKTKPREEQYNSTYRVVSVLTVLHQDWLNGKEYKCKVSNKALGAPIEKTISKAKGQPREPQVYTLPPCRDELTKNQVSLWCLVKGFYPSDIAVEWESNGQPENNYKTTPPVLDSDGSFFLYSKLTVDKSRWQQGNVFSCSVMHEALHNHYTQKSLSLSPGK
cross light: B1 cross light
heavy: B1 heavy with L238A, L239A, P333G
light: B1 light
notes: structure 3; CEA x CD3; CH2 AAG; copies: 1 + 1 + 1 + 2
B3: BCMA-M2-G2 (bispecific antibody, human IgG1, kappa)
chain: QLQLQESGPGLVKPSETLSLTCTVSGGSISSGSYFWGWIRQPPGKGLEWIGSIYYSGITYYNPSLKSRVTISVDTSKNQFSLKLSSVTAADTAVYYCARHDGAVAGLFDYWGQGTLVTVSSASTKGPSVFPLAPSSKSTSGGTAALGCLVKDYFPEPVTVSWNSGALTSGVHTFPAVLQSSGLYSLSSVVTVPSSSLGTQTYICNVNHKPSNTKVDKKVEPKSCDKTHTGGGSAAAQVQLVESGGGVVQPGRSLRLSCAASGFTFSTYAMNWVRQAPGKGLEWVARIRSKYNNYATYYADSVKDRFTISRDDSKNTLYLQMNSLRAEDTAVYYCARHGNFGNSYVSWFAYWGQGTLVTVSSGGGGSGGGGSGGGGSQTVVTQEPSLTVSPGGTVTLTCRSSTGAVTTSNYANWVQQKPGQAPRGLIGGTNKRAPGVPARFSGSLLGGKAALTLSGVQPEDEAEYYCALWYSNLWVFGGGTKVEIKGGGGSDKTHTCPPCPAPPVAGPSVFLFPPKPKDTLMISRTPEVTCVVVDVSHEDPEVQFNWYVDGVEVHNAKTKPREEQFNSTFRVVSVLTVVHQDWLNGKEYKCKVSNKGLPAPIEKTISKTKGQPREPQVYTLPPCRDELTKNQVSLWCLVKGFYPSDIAVEWESNGQPENNYKTTPPVLDSDGSFFLYSKLTVDKSRWQQGNVFSCSVMHEALHNHYTQKSLSLSPGK
heavy: QLQLQESGPGLVKPSETLSLTCTVSGGSISSGSYFWGWIRQPPGKGLEWIGSIYYSGITYYNPSLKSRVTISVDTSKNQFSLKLSSVTAADTAVYYCARHDGAVAGLFDYWGQGTLVTVSSASTKGPSVFPLAPSSKSTSGGTAALGCLVKDYFPEPVTVSWNSGALTSGVHTFPAVLQSSGLYSLSSVVTVPSSSLGTQTYICNVNHKPSNTKVDKKVEPKSCDKTHTCPPCPAPPVAGPSVFLFPPKPKDTLMISRTPEVTCVVVDVSHEDPEVQFNWYVDGVEVHNAKTKPREEQFNSTFRVVSVLTVVHQDWLNGKEYKCKVSNKGLPAPIEKTISKTKGQPREPQVCTLPPSRDELTKNQVSLSCAVKGFYPSDIAVEWESNGQPENNYKTTPPVLDSDGSFFLVSKLTVDKSRWQQGNVFSCSVMHEALHNRFTQKSLSLSPGK
light: SYVLTQPPSVSVAPGQTARITCGGNNIGSKSVHWYQQPPGQAPVVVVYDDSDRPSGIPERFSGNSNGNTATLTISRVEAGDEAVYYCQVWDSSSDHVVFGGGTKLTVLRTVAAPSVFIFPPSDEQLKSGTASVVCLLNNFYPREAKVQWKVDNALQSGNSQESVTEQDSKDSTYSLSSTLTLSKADYEKHKVYACEVTHQGLSSPVTKSFNRGEC
notes: structure 2; BCMA x CD3; CH2 G2CH2
B4: BCMA-M2-AG2 (bispecific antibody, human IgG1, kappa)
chain: B3 chain with C499A
heavy: B3 heavy with C233A
light: B3 light
notes: structure 2; BCMA x CD3; CH2 AG2CH2
B5: BCMA-M2-DG2 (bispecific antibody, human IgG1, kappa)
chain: B3 chain with D534A
heavy: B3 heavy with D268A
light: B3 light
notes: structure 2; BCMA x CD3; CH2 DG2CH2
B6: BCMA-M2-DG2D (bispecific antibody, human IgG1, kappa)
chain: B3 chain with D534A, D539A
heavy: B3 heavy with D268A, D273A
light: B3 light
notes: structure 2; BCMA x CD3; CH2 DG2DCH2
B7: BCMA-M2-PG2 (bispecific antibody, human IgG1, kappa)
chain: B3 chain with C499P
heavy: B3 heavy with C233P
light: B3 light
notes: structure 2; BCMA x CD3; CH2 PG2CH2
B8: BCMA-M2-GG2 (bispecific antibody, human IgG1, kappa)
chain: B3 chain with C499G
heavy: B3 heavy with C233G
light: B3 light
notes: structure 2; BCMA x CD3; CH2 GG2CH2
B9: BCMA-M2-G2D (bispecific antibody, human IgG1, kappa)
chain: B3 chain with D539A
heavy: B3 heavy with D273A
light: B3 light
notes: structure 2; BCMA x CD3; CH2 G2DCH2
B10: BCMA-M2-SG2 (bispecific antibody, human IgG1, kappa)
chain: B3 chain with C499S
heavy: B3 heavy with C233S
light: B3 light
notes: structure 2; BCMA x CD3; CH2 SG2CH2

Each binder was assayed against T3, Monkey CD3 (monkey) (assay: flow cytometry, monkey T cells).
T3 construct: whole, on cells; also called CD3 of monkey CD3 positive T cells

Binder | EC50
B1 | 757 nM
B2 | 662 nM

Molecular target: T3, Monkey CD3
Assay: flow cytometry, monkey T cells
Remark: another data set of the same source

Binder | EC50
B3 | 591 nM
B4 | 668 nM
B5 | 501 nM
B6 | 641 nM
B7 | 716 nM
B8 | 636 nM
B9 | 510 nM
B10 | 461 nM

These binders were tested against T1, Human BCMA (assay: flow cytometry, human tumor cells (BCMA+)).
Text: (§1) 1) Cell preparation: T cells isolated from CD3-positive human whole blood were used for a CD3 end affinity detection of multifunctional antibody molecule; positive tumor cells of corresponding antigen were used for detecting affinity of tumor antigen; for example, CD38-positive MM. 1S cells (purchased from the Cell Resource Center of Shanghai Institutes for Biological Sciences, Chinese Academy of Sciences) or RPMI 8226 cells (purchased from the Cell Resource Center of Shanghai Institutes for Biological Sciences, Chinese Academy of Sciences) were used for CD38 antigen detection, and PD-L1 positive H358 cells (purchased from the Cell Resource Center of Shanghai Institutes for Biological Sciences, Chinese Academy of Sciences) were used for PD-L1 antigen detection, and so on. The cells were resuspended with 1% FBS-PBS, adjusted to a density of 4×10⁶/ml, and 50 μl of cells were taken from each well, and then plated at 2×10⁵ per well. Cell plating was operated on ice
(§2) 2) Addition of the antibody: according to the experimental design, the antibody was diluted gradually, and dilution of antibody was operated on ice. For example, the initial concentration of antibody for dilution was 3000 nM, and the antibody was diluted by 3 times with 11 concentration gradients. The diluted antibody was added to a cell well at 50 μl per well, mixed well, and shaked and incubated at 4° C. 1100 rpm/min for 2 h; after washing, the cells were resuspend in 1% FBS-PBS, and a diluted secondary antibody PE anti-human IgG FC (Biolegend, 409304) was added with a final concentration of 8 ug/ml and a volume of 50 μl/well. At the same time, a well only added with cells and secondary antibody was set as a control, the components were mixed well, and incubated under shaking at 1100 rpm/min at 4° C. for 1 h;
(§3) 5) Data analysis: the data was analyzed by a flow analysis software FlowJo 7.6 thereby obtaining an average fluorescence intensity of the specific antibody concentration, plotted by a Graphpad Prism 5 with the antibody concentration (nM) as an abscissa and the average fluorescence intensity as an ordinate; the EC50 value was calculated by the method of One site—Specific binding, and the EC50 value indicated the cell affinity of the antibody to the corresponding target antigen.

Binder | EC50
B3 | 19.1 nM
B4 | 23.8 nM
B5 | 17.4 nM
B6 | 18.8 nM
B7 | 24 nM
B8 | 23.6 nM
B9 | 19.2 nM
B10 | 17 nM

What follows are binders tested against T2, human CEA (assay: flow cytometry, human tumor cells (CEA+)).
Text: as §1, §2, §3

Binder | EC50
B1 | 35.8 nM
B2 | 30.1 nM

The binders below were run against T4, Human CD3ε (human, UniProt P07766 23-126) (assay: flow cytometry, human T cells).
T4 construct: CD3 on T cells isolated from human whole blood
How it was run: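 For cell-surface binding, T cells served for the CD3 arm and antigen-positive tumor cells (e.g. MM.1S or RPMI 8226 for CD38) for the tumor arm.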

Binder | EC50
B3 | 515 nM
B4 | 613 nM
B5 | 550 nM
B6 | 534 nM
B7 | 599 nM
B8 | 448 nM
B9 | 351 nM
B10 | 400 nM
B1 | 624 nM
B2 | 646 nM
